Tests used:
KLC2 TPR domain = test: FP
KLC1 TPR domain = test: FP
Sequence of KLC1 TPR domain (chain, as listed by the source): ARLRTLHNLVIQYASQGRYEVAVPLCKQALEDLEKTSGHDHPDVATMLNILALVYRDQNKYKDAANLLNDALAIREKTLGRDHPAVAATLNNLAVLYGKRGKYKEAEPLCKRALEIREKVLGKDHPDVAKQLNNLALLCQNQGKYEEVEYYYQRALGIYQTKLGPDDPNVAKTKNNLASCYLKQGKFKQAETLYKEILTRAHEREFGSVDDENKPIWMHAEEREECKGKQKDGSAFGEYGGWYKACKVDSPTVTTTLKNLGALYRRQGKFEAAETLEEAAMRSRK

Sequence of KLC2 TPR domain (chain, as listed by the source): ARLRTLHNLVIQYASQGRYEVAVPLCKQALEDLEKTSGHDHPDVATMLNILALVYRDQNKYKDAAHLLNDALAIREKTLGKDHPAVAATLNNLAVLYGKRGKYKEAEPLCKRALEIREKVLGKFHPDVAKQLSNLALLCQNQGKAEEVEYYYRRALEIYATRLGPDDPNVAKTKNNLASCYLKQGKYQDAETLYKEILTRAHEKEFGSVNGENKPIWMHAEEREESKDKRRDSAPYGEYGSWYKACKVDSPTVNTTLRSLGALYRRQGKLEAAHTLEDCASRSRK

Kd (KLC2 TPR domain): 750 nM
Kd (KLC1 TPR domain): 830 nM
Binder: {TAMRA}-STNLEWDDSAI-NH2 [SKIP W-acidic motif peptide]
